In PMC3937733:

Target: mTurquoise-Tub1p (S. cerevisiae) (UniProt P09733)
Assay: FRET or BRET; sensitized emission FRET in living S. cerevisiae cells by confocal microscopy; mTurquoise donor, YFP acceptor; FRET index corrected for donor and acceptor bleed through and for the level of the donor (relative FRET index)

UniProt P09733, sequence (P09733 whole entry): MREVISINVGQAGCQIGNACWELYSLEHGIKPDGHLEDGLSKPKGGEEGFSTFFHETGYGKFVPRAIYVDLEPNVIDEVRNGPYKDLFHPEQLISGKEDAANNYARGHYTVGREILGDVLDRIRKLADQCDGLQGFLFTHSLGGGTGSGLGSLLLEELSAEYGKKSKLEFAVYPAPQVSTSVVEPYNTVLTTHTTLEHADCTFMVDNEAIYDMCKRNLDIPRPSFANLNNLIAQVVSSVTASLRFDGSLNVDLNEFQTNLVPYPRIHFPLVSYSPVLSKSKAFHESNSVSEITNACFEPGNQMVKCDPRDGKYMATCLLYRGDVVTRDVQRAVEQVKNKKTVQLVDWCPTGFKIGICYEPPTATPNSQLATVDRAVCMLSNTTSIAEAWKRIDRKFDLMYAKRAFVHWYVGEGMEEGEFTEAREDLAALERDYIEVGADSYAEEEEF

YFP-VirE2 (from UniProt P0A3W8 1-533) (natural protein)
relative FRET index: 11.9
